# From the supplement of paper PMC10567573
# B1: BRF1 (parent)
# chain: FVESSGGGSSAVGQFVSLDGAGKT
# Variants of: B1
# Assay: protein stability index of a GFP-peptide fusion (GPS, HEK-293T) (PSI 1-6); higher = more stable
# Conditions: c terminus: a fixed tail appended
# 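Also: lentivirally expressed fusions sorted by FACS into six bins by GFP to DsRed ratio, PSI derived from sequencing read proportions per bin multiplied by bin number.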
row,Variant,protein stability index
1,FVSSSGGGSSAVGQFVSLDGAGKT [E3S],1.33
2,FVQSSGGGSSAVGQFVSLDGAGKT [E3Q],1.78
3,FVLSSGGGSSAVGQFVSLDGAGKT [E3L],1.17
4,YVESSGGGSSAVGQFVSLDGAGKT [F1Y],2.75
5,WVESSGGGSSAVGQFVSLDGAGKT [F1W],3.88
6,FVESSGGASSAVGQFVSLDGAGKT [G8A],2.36
7,FVESSGGRSSAVGQFVSLDGAGKT [G8R],1.32
8,FVESSGGQSSAVGQFVSLDGAGKT [G8Q],3.27
9,FVESSGGPSSAVGQFVSLDGAGKT [G8P],2.08
10,FVESSGGMSSAVGQFVSLDGAGKT [G8M],1.71
11,FVESSGGCSSAVGQFVSLDGAGKT [G8C],1.95
12,FVESSGGHSSAVGQFVSLDGAGKT [G8H],1.51
13,FVESSGGFSSAVGQFVSLDGAGKT [G8F],1.69
14,FVESSGGVSSAVGQFVSLDGAGKT [G8V],1.95
15,FVESSGGLSSAVGQFVSLDGAGKT [G8L],2.06
16,FVESSGGSSSAVGQFVSLDGAGKT [G8S],2.06
17,FVESSGGKSSAVGQFVSLDGAGKT [G8K],2.89
18,FVESSGGISSAVGQFVSLDGAGKT [G8I],1.84
19,FVESSGGNSSAVGQFVSLDGAGKT [G8N],2.12
20,FVESSGGTSSAVGQFVSLDGAGKT [G8T],2.52
21,FVESSGGYSSAVGQFVSLDGAGKT [G8Y],2.46
22,FVESSGGESSAVGQFVSLDGAGKT [G8E],3.31
23,FVESSGGDSSAVGQFVSLDGAGKT [G8D],2.44
24,FVESSGGGSIAVGQFVSLDGAGKT [S10I],1.37

row,Variant,protein stability index
1,FVESSGGGSGAVGQFVSLDGAGKT [S10G],2.23
2,FVESSGGGSVAVGQFVSLDGAGKT [S10V],1.96
3,FVESSGGGSHAVGQFVSLDGAGKT [S10H],1.99
4,FVESSGGGSKAVGQFVSLDGAGKT [S10K],1.42
5,FVESSGGGSLAVGQFVSLDGAGKT [S10L],1.81
6,FVESSGGGSEAVGQFVSLDGAGKT [S10E],2.31
7,FVESSGGGSTAVGQFVSLDGAGKT [S10T],2.72
8,FVESSGGGSRAVGQFVSLDGAGKT [S10R],1.98
9,FVESSGGGSNAVGQFVSLDGAGKT [S10N],2.31
10,FVESSGGGSYAVGQFVSLDGAGKT [S10Y],1.64
11,FVESSGGGSCAVGQFVSLDGAGKT [S10C],1.33
12,FVESSGGGSPAVGQFVSLDGAGKT [S10P],2.57
13,FVESSGGGSDAVGQFVSLDGAGKT [S10D],2.75
14,FVESSGGGSMAVGQFVSLDGAGKT [S10M],1.46
15,FVESSGGGSQAVGQFVSLDGAGKT [S10Q],2.53
16,FVESSGGGSSVVGQFVSLDGAGKT [A11V],2.4
17,FVESSGGGSSYVGQFVSLDGAGKT [A11Y],1.64
18,FVESSGGGSSLVGQFVSLDGAGKT [A11L],1.77
19,FVESSGGGSSNVGQFVSLDGAGKT [A11N],2
20,FVESSGGGSSGVGQFVSLDGAGKT [A11G],2.28
21,FVESSGGGSSDVGQFVSLDGAGKT [A11D],2.68
22,FVESSGGGSSMVGQFVSLDGAGKT [A11M],1.63
23,FVESSGGGSSIVGQFVSLDGAGKT [A11I],2.41
24,FVESSGGGSSTVGQFVSLDGAGKT [A11T],2.06

row,Variant,protein stability index
1,FVESSGGGSSFVGQFVSLDGAGKT [A11F],2.02
2,FVESSGGGSSEVGQFVSLDGAGKT [A11E],3.28
3,FVESSGGGSSSVGQFVSLDGAGKT [A11S],1.95
4,FVESSGGGSSQVGQFVSLDGAGKT [A11Q],2.61
5,FVESSGGGSSRVGQFVSLDGAGKT [A11R],1.39
6,FVESSGGGSSKVGQFVSLDGAGKT [A11K],1.41
7,FVESSGGGSSPVGQFVSLDGAGKT [A11P],2.42
8,FVESSGGGSSHVGQFVSLDGAGKT [A11H],1.9
9,FVESSGGGSSCVGQFVSLDGAGKT [A11C],1.58
10,FVESSGCGSSAVGQFVSLDGAGKT [G7C],2.31
11,FVESSGKGSSAVGQFVSLDGAGKT [G7K],2.09
12,FVESSGSGSSAVGQFVSLDGAGKT [G7S],1.78
13,FVESSGLGSSAVGQFVSLDGAGKT [G7L],1.52
14,FVESSGHGSSAVGQFVSLDGAGKT [G7H],1.68
15,FVESSGPGSSAVGQFVSLDGAGKT [G7P],2.34
16,FVESSGNGSSAVGQFVSLDGAGKT [G7N],2.26
17,FVESSGWGSSAVGQFVSLDGAGKT [G7W],2.54
18,FVESSGTGSSAVGQFVSLDGAGKT [G7T],2.38
19,FVESSGAGSSAVGQFVSLDGAGKT [G7A],2.86
20,FVESSGMGSSAVGQFVSLDGAGKT [G7M],2.05
21,FVESSGQGSSAVGQFVSLDGAGKT [G7Q],2.26
22,FVESSGRGSSAVGQFVSLDGAGKT [G7R],1.38
23,FVESSGFGSSAVGQFVSLDGAGKT [G7F],2.93
24,FVESSGDGSSAVGQFVSLDGAGKT [G7D],3.52

row,Variant,protein stability index
1,FVESSGIGSSAVGQFVSLDGAGKT [G7I],1.81
2,FVESSGEGSSAVGQFVSLDGAGKT [G7E],3.02
3,FVESSGVGSSAVGQFVSLDGAGKT [G7V],1.61
4,FKESSGGGSSAVGQFVSLDGAGKT [V2K],4.25
5,FQESSGGGSSAVGQFVSLDGAGKT [V2Q],4.12
6,FMESSGGGSSAVGQFVSLDGAGKT [V2M],4.49
7,FDESSGGGSSAVGQFVSLDGAGKT [V2D],5.17
8,FGESSGGGSSAVGQFVSLDGAGKT [V2G],4.36
9,FYESSGGGSSAVGQFVSLDGAGKT [V2Y],4.16
10,FCESSGGGSSAVGQFVSLDGAGKT [V2C],3.96
11,FWESSGGGSSAVGQFVSLDGAGKT [V2W],4.01
12,FPESSGGGSSAVGQFVSLDGAGKT [V2P],4.97
13,FEESSGGGSSAVGQFVSLDGAGKT [V2E],5.33
14,FNESSGGGSSAVGQFVSLDGAGKT [V2N],4.94
15,FLESSGGGSSAVGQFVSLDGAGKT [V2L],4.72
16,FFESSGGGSSAVGQFVSLDGAGKT [V2F],4.2
17,FIESSGGGSSAVGQFVSLDGAGKT [V2I],3.22
18,FSESSGGGSSAVGQFVSLDGAGKT [V2S],4.35
19,FTESSGGGSSAVGQFVSLDGAGKT [V2T],4.76
20,FRESSGGGSSAVGQFVSLDGAGKT [V2R],4.44
21,FAESSGGGSSAVGQFVSLDGAGKT [V2A],3.78
22,FHESSGGGSSAVGQFVSLDGAGKT [V2H],3.87
